Measurements as given in PMC6321462.

Target: actin from rabbit skeletal muscle (G-actin polymerized to F-actin) (rabbit) (UniProt P68135)

MBP-DRR1 dC (recombinant murine DRR1 lacking the C-terminal domain, MBP fusion) (domain or fragment), sequence (Q78TU8 whole entry, the tested form may be a part): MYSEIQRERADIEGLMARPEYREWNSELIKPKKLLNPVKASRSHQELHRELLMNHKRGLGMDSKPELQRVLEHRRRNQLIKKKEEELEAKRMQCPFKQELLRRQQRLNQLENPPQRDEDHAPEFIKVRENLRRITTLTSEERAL

- barbed end filament elongation rate in the presence of profilin (1.5 µM), TIRF microscopy, R = 0.5: 36 % of control
Substance: MBP-DRR1 dC (recombinant murine DRR1 lacking the C-terminal domain, MBP fusion) (domain or fragment)
